# Test results taken from patent US20110038881A1, “PROGNOSTIC ASSAY FOR DETERMINING T CELL RESPONSE TO HLA ANTIGENS AND USE THEREOF IN FIELD OF TISSUE TRANSPLANTATION” (priority 2007, published 2011).
# T1: HLA-DRB1*1301 (human)
# T1 chain 1: not shown
# T1 chain 2: not shown
# What was measured:
# HLA-DRB1*1301 (human) [1] = assay: competition binding; conditions: modification not given
# HLA-DRB1*0701 (human) = assay: competition binding; conditions: modification not given
# HLA-DRB3*0101 (human) = assay: competition binding; conditions: modification not given
# HLA-DRB1*0101 (human) = assay: competition binding; conditions: modification not given
# HLA-DRB1*0301 (human) = assay: competition binding; conditions: modification not given
# HLA-DRB1*0401 (human) = assay: competition binding; conditions: modification not given
# HLA-DRB1*1501 (human) = assay: competition binding; conditions: modification not given
# HLA-DRB4*0101 (human) [2] = assay: competition binding; conditions: modification not given
# HLA-DRB1*1101 (human) = assay: competition binding; conditions: modification not given
# HLA-DRB5*0101 (human) = assay: competition binding; conditions: modification not given
# HLA-DRB4*0101 (human) [3] = assay: competition; conditions: modification not given
# HLA-DRB1*1301 (human) [4] = target: T1, HLA-DRB1*1301 (human); assay: competition assay on purified, immobilised HLA-DR against the biotinylated reference peptide, pH 4.5
Binder,IC50 (HLA-DRB1*1301 (human) [1]) [µM],IC50 (HLA-DRB1*0701 (human)) [µM],IC50 (HLA-DRB3*0101 (human)) [µM],IC50 (HLA-DRB1*0101 (human)) [µM],IC50 (HLA-DRB1*0301 (human)) [µM],IC50 (HLA-DRB1*0401 (human)) [µM],IC50 (HLA-DRB1*1501 (human)) [µM],IC50 (HLA-DRB4*0101 (human) [2]) [µM],IC50 (HLA-DRB1*1101 (human)) [µM],IC50 (HLA-DRB5*0101 (human)) [µM],IC50 (HLA-DRB4*0101 (human) [3]) [µM],IC50 (HLA-DRB1*1301 (human) [4]) [µM]
RCWALSFYPAEITLT [p40],> 100,0.045,3.97,0.026,5.23,2,0.028,4.52,40.6,0.812,–,–
CDVGSDWRFLRGYHQ [p19],100,0.341,> 100,0.009,1.5,0.543,0.598,51.4,0.029,0.033,–,–
HQYAYDGKDYIALKE [p23],> 100,37.8,2.29,0.406,52,17.7,> 100,> 100,0.684,1.5,–,–
SQRMEPRAPWIEQEGP [p9],60,83.7,> 100,10.8,> 100,> 100,33.2,> 100,15.5,67.1,–,–
RGYHQYAYDGKDYIA [p22],> 100,33.4,1.28,9.49,8.48,81.5,> 100,> 100,1.75,40,–,–
PEYWDGETRKVKAHS [p11],> 100,62.9,> 100,4.95,> 100,63.2,> 100,> 100,0.418,24.4,–,–
HAVSDHEATLRCWAL [p39],–,–,–,–,–,–,–,–,–,–,0.008,–
TSVSRPGRGEPRFIA [p3],> 100,6.93,> 100,0.648,> 100,5.48,18.7,> 100,1.02,> 100,–,–
AEITLTWQRDGEDQT [p42],> 100,> 100,30,1.34,> 100,> 100,18.8,4.58,6,4.69,–,–
HSMRYFFTSVSRPGR [p1*],0.365,0.038,> 100,0.003,7.35,0.013,0.509,0.193,0.002,0.004,–,–
VGYVDDTQFVRFDSD [p6],> 100,3.16,0.245,27.7,0.6,97.5,1.78,9,2.8,9.19,–,–
VDLGTLRGYYNQSEA [p14*],> 100,> 100,> 100,0.209,> 100,8.83,0.082,> 100,1.55,11,–,–
HRVDLGTLRGYYNQS [p13*],> 100,36.7,> 100,0.089,> 100,4.04,0.088,67.1,8.06,12.4,–,–
VRFDSDAASQRMEPR [p8*],> 100,4.65,2.68,14,1.4,3.39,> 100,> 100,58.3,3.58,–,–
APWIEQEGPEYWDGE [p10],> 100,79.4,75,13,49.7,> 100,51.2,> 100,58.1,73.5,–,–
RKVKAHSQTHRVDLG [p12],0.385,0.486,> 100,21.6,> 100,100,> 100,2.97,> 100,7.98,–,–
KDYIALKEDLRSWTA [p25],2.74,2.96,85.5,0.01,1.63,0.325,0.125,27.4,0.042,0.052,–,–
KPLTLRWEPSSQPTI [p50*],> 100,0.097,3.55,0.458,> 100,0.134,5.61,4.58,11.4,45.8,–,–
GTLRGYYNQSEAGSH [p15*],> 100,2.96,> 100,0.406,> 100,1.82,0.033,> 100,1.86,0.612,–,–
TERVRLVTRHIYNREE (modifications not checked) [reference peptide B1 21-36],–,–,–,–,–,–,–,–,–,–,–,0.131
